# Experiment: soluble on expression in E. coli; label from the status in PepcDB or PDB records
row,Sequence,soluble on expression in E. coli
1,MSDVMADRTPPHNIEAEQAVLGAILIDQDALTSASELLVPDSFYRTKHQKIFEVMLGLSDKGEPIDLVMMTSAMADQGLLEEVGGVSYLAELAEVVPTAANVEYYARIIAEKALLRRLIRTATHIVSDGYEREDDVDGLLNEAEKKILEVSHQTNAKAFQNIKDVLVDAYDKIELLHNQKGEVTGIPTGFTELDKMTAGFQRNDLIIVAARPSVGKTAFSLNIAQNVATKTDENVAIFSLEMGADQLVMRMLCAEGNIDAQRLRTGSLTSDDWAKLTMAMGSLSNAGIYIDDTPGIKVNEIRAKCRRLKQEQGLGMILIDYLQLIQGSGKSGENRQQEVSEISRTLKGIARELQVPVIALSQLSRGVESRQDKRPMMSDIRESGSIEQDADIVAFLYREDYYDRETENKNTIEIIIAKQRNGPVGSVELAFVKEFNKFVNLERRFEDGHAPPA,not soluble
2,MTDKKTTEKKETETAATFTEELTAVLEEIKEEPVKEKKKGEIVTIVNETDIQIGEREYRIVKNHRDAFDPERLGERFSEVLARYDYIVGDWGYEQLRLRGFFDTSNRRAAPDQRIDTLEDYLYEYCNFGCAYFVIERTGERKEKTTHRRRRHKKNNRSNAFVEEKSAPANKNSKPVIRTRKEENKKTTTPKQPSPKKSGKGFTIRQREELEHHHHHH,soluble
3,MGHHHHHHSHMKDIGHLQHLAQRLQWNRRAVNICGMHGWTKDLSPHSRMPSMLEHVKHYMSC,not soluble
4,MLQPPKIVAELSANHNQDLNLAKESLHAIKESGADFVKLQTYTPSCMTLNSKEDPFIIQGTLWDKENLYELYQKASTPLEWHAELFELARKLDLGIFSSPFSSQALELLESLNCPMYKIASFEIVDLDLIEKAARTQKPIILSSGIATHTELQDAISLCRRVNNFDITLLKCVSAYPSKIEDANLLSMVKLGEIFGVKFGLSDHTIGSLCPILATTLGASMIEKHFILNKSLQTPDSAFSMDFNGFKSMVEAIKQSVLALGEEEPRINPKTLEKRRFFARSLFVIKDIQKGEALTENNIKALRPNLGLHPKFYKEILGQKASKFLKANTPLSADDIERSLLEHHHHHH,not soluble
5,MGSDKIHHHHHHMIAEPFLFRSEGGFIRIPIWGHIPLSAPLKKILAHPSFLRLKGIRQLSFAQQVYPGANHTRFEHSIGVYHLMKMILQRMVSNPLALELQDERLQFDDETCRTLLATCLLHDIGHYPHAHVLEEITPAGDSSAVFAHHESLTGQFLNEEHRDTPSIAAILHDDWQVNPDTVTEIIAGKTAHRLGKLVSGTLDPDKMDYLMRDAHHCNIPYGSIDIERLIESFVPDPERQRLAITEKGIAPLESLLFAKYMMMRNVYWHHTSRTFSTMLRRLLQDVADESALPMETLRELFYFNSDDRVLFELERAIRGLGLPAAELLDAILERRVYKRAMTIRPYHEPSMEIDPVWFAYNTSHRRRKEKELEICAMLAGKTGKRLAGHEVLIDAPPSKDVFDYSDFRELRIWPTKSEHRHLVQPTDSNGYVRFDDFRESVFGSDFILSFEQYTKKFRLLCRHDLVDTLSGLEEAVVEILRR,not soluble
6,MMKGSKSYTEYSSSFSTDEFGYDQNRSNSYNFNGPCINTDPEMKRKKRVASYNLFATEEKLKSTLKNSFKWIKNKFSGDDNSIRYNV,not soluble
7,MVKINITAETNGFVLLEHGEVFIKNNNDVSLKLIPNEQEVPLIINIEFANKGGRIASVDRNIVNDKLVFTCNNFQSEPGNWGGIIEPMLIAEMDDCNLYLSFLVWNIDTTNYNRLLNYSFWLKKK,not soluble
8,AFRGLRKGQFFDENALMLIATIAAFFVGAYEESVSIMVFYSAGEFLQKLAVSRSKKSLKALVDVAPNLAYLKKGDELVSVAPEDLRVNDIVVVKVGEKVPVDGVVVKGESLLDERALSGESMPVNVSENSKVLGGSLNLKAVLEIQVEKMYKDSSIAKVVDLVQ,not soluble
9,MAAKPKLYYFNGRGRMESIRWLLAAAGVEFEEEFLETREQYEKMQKDGHLLFGQVPLVEIDGMMLTQTRAILSYLAAKYNLYGKDLKERVRIDMYADGTQDLMMMIAVAPFKTPKEKEESYDLILSRAKTRYFPVFEKILKDHGEAFLVGNQLSWADIQLLEAILMVEELSAPVLSDFPLLQAFKTRISNIPTIKKFLQPGSQRKPPPDGPYVEVVRIVLKF,soluble
10,MFVVKDCCQMIEVLFFIFKTNFKNCFPKMRKSKMYKSEPYSKKTIKIKKATDCGVITNIFSHFNEYVKQTIR,soluble
11,MVASHSFEASILAYVLATELKRKGIEINPEHSALIALFHDAGETLLGDLPKWATSRINKRDAEVEAFDELGIGKELFLELKDLNTNEAKVAKLSDRLSTY,soluble
12,MGSDKIHHHHHHMNKPKVPPTITEQPDEQTFAYLLAHIQQTRQQVFAQVNTALIELYWSVGKTISEKVVSAGWGKGVVKQLAAYLASQAPDIKGFSDKNLWRMKQFYETYQHDIKLASLVRVLPWTHNTIIFSRCKSNREREHYLMLVQRERLSSRELERHINAAHFERSLIEQPKLSAVLRQSHPIANTIFKDNYTLEFLGLPSSHSESDLQKAIINNLKTFILELGKDFIFIDEEYRLQVGNQDFYIDLLFFHRGLAALVAFELKIGKFSPQHLGQLDFYLEALDRDVKKPHENPSIGVLLCRDKDDEVVEYALSRNLSPTLVAQYQCQMPDKQLLQAKLHQLLQDLPAQDELASQHMTEQMPRQGEYNE,not soluble
13,MLQSINQLNPDIVVITGDLTENGFSAEYDGVKMFIDRIECKNRVLVPGNHDSKNAGYLHFEDLFENRFQTRNLGNMTIVGADSSQPDIDDGHLGRENYGWIKEAFSGENFKVFALHHHLVPIPLAGRENTVLVDAGDVLDLLNKCRVNLVLCGHCHIPHVWNLNNMLVVNAGTFCSSKTRGKTTQCFNLIQAENSEKNGNGESEKIEDGGWKVRVSRVFPQGNIEFITETVMLEHHHHHH,not soluble
14,MKLDAKSTIETGKAILGIELGSTRIKAVLIDQENKPIAQGSHTWENQLVNGLWTYSIDAIWSGLQDCYADLRSNVKKLYDTEIETLAAIGVSAMMHGYMPFNEKEEILVPFRTWRNTNTGRAAAELSELFVYNIPLRWSISHLYQAILDNEAHVKDIKFLTTLAGYVHWQITGEKVLGIGDASGMLPIDPTTNNYSAEMVAKFNNLIASKEYSWKLEDILPKVLSAGENAGVLTPEGCKKLDASGHLKAGIPVCPPEGDA,not soluble
15,MFTQVKPYLSLPGFSCVLVNAGIVPPDLNQNFRVAFFNEKKSLNFYVLEKLFLNAEVKLLKPQKETEETFDFIISEIPFSHAFEEERKGLSNSIRNSLKEKGVLFIEYDSKPGSTPKEEFIRFIRLFLKKVESEQVKTDLEVILSRPSYFWARNNETRLYFLEKARRFNDDFVKREITNENYRIFSHDEVHELLKDCMLSFAGRANLEMNDPEIVLFPSHLATLARCGKNNLCKEAVIDFVLDTKQRRDIYAKFPEVDQEKAIESVADKFFLIPRQSPKNLRREVLLPGGHKLSLSEPVYDFFFVNSEEPRRLSEHPLYEKSKKTAWKAFYRVLSTGEFILCVNDDLLEDAKDELPESFELTPPNDEILKVSFENLEDTYLVSNATKGPAVHLNTLEVILLWFASEKGKTKAKEEAVKFLKSREEFIKLGTNIVKAREVKEEDINKTAEKLFKGRKAFNLNRLKIIRER,not soluble
16,MGSDKIHHHHHHMLRKDIGIDLGTANTLVFLRGKGIVVNEPSVIAIDSTTGEILKVGLEAKNMIGKTPATIKAIRPMRDGVIADYTVALVMLRYFINKAKGGMNLFKPRVVIGVPIGITDVERRAILDAGLEAGASKVFLIEEPMAAAIGSNLNVEEPSGNMVVDIGGGTTEVAVISLGSIVTWESIRIAGDEMDEAIVQYVRETYRVAIGERTAERVKIEIGNVFPSKENDELETTVSGIDLSTGLPRKLTLKGGEVREALRSVVVAIVESVRTTLEKTPPELVSDIIERGIFLTGGGSLLRGLDTLLQKETGISVIRSEEPLTAVAKGAGMVLDKVNILKKLQGAG,not soluble
17,MAHHHHHHMKNCMMADQRGRSILQYQPIVGDEALEFSRGLAPSTFGFRYAAYMDRNHFLPSGRTAVKHIADPTLAYVMTRYRQCHDFVHIITGCGRSIEEELAVKIFEWKHTGLPLGLLSLLGGAPRLSAAQWAHIRLYWEWASRNAPSSRHGEPAVPMYLNVPWEDMLAKEYDEVVAYTGITPLPDFLEKRQKH,not soluble
18,MSLKNNIYGNVPCFLNSKNLNQTNTLDTDVIVYGAPFEGESTWGDYTGVELGPKQIRVCSARYSQYLPELNHIDISEHLTMGDVGDVPFVAHDNKQSYDNISDFAKKLWDSGKFLVGFGGEHGVTYPILKALTETGKKVGIIHLDAHYDNMPDYEGEPYARNTPFMRLYETDGIRNESIIHTGIHGPRNKPETGRFAQEAGAVTLTINDIRAAKDLKTYAHEIYAQASKDVDVVYLTICSDVLDFAFNPGGPVDGNGLSSYELLTMIHEFGKLGLGGMDYVEVYPMMDANQNSAHFVSTAVLYVLAGHVAYLNQTEGHHHHHH,soluble
19,MGSDKIHHHHHHMKHESTKIPLVIFMHIPKTGGITLRNILDQQYRSEHILRLPQKNKLDNLLQKKGANIKKLQCVYGHHRFGVHEYFQQPFTYITMLRHPVERIISTYYFILQNERNRMHQKVKPLTFEQFVQSTDPDLQVPLTNHQTRYLSGERKPNLNKALQHMDTHFSVVGITELYNESLFIMKKKLGWDHISYQKKNVTYYRYRQTDIGLDTIEIIKRKNPLDLHLYETAKEKLQEHIKRLDSGARKELQQFLQDQNGFGPHG,not soluble
20,MNENKLRRLIKKNEYEKLDFKLKIELFTESVKKELAKDICAIANSRGGRGYIIIGVEDKTKKIVGVDADYITEERVQQIVASRIEPPVPISLEECFLDGKRLLVIVIFNSYQKPYQIRENGAFYIRRGSTTDIMRKQELLSEFQKGISFNLETCPIVNSNIDFLNEELVRRYFYLKGIKISKENREFLLSSSNIIHKNNISGKSMCTLGGLLVFSDVNSIYIPHNMIKIRNLLGGEQTFIIRGNILDMMKSMEKKLREIVPNEYPVALIIDTIRNILIYRDYSQYNKIVEVVLGKKELTVYCPGEIVKRYRDGRIGYIKRNMWIYEKIISLDSRDGEMNYNLGGKEVKESFTNKVKVITVNEENITKFIFNKYRTIGLEHHHHHH,soluble
21,MWRTEMRKFLVVLDDSRECLNAMRFAAMRAAHTGGGVAILSIIPPDEFNHWIGVGEVMREEARERIHAHFEVFAKWMRDKQGVEPELVIREGEAVPEIIAHVQEDPEIGVLVLGAGTDKKGPGPLVSQLSRSSGSLPIPITIVPGDLSKEKLEAIT,not soluble
22,MAHHHHHHMADSYENDEDVLQMIQQIKKITKESKRKFENEIDYLVEDTKTNLLTHVDDEKNCIKKEAEEKLNSYRENLIKYEKGINEKRRHYLKLKAELATVVNNYKKRMKVGPACTCVERFTCACGEVYTRVEVYTLVKLHTLVKPPTRLLSPQDFNQETENFKQTYEREKKELEDLEDREWSELNTHCVELLSKTKSNICATKNETNKKLRKVLNSIM,not soluble
23,MNCVCGSGKTYDDCCGPLLARTRSAASPEALMRSRYAAYALKDFDYIVETTDPERRDLFDHDVNRAWMEESDFLELRVLGSSEKGSRGTVEFIARFRRGGGPEQSHHERSQFRKARGRWYFSEGEAVD,soluble
24,IDENSFWIEGYFKETDLAGIAPNDRATVTLLMHDDVALEGKIKSIGFGIAKKDGTTGNDLLPTVNPNFQWIRLAQRIPVKVTLNEMPKDLQLRVGMTASIKIIKH,not soluble
25,MSLERKRVLVKFSGEALAGENGFGIENSILKFIASEIKELIKNQIEVGIVIGGGNIIRGVSAAKGGLIKRTSGDHMGMLATVINAIAIQEALESSGLEVRVQSAIQMEAFCETYIMRRAQRHLEKGRVVVFAAGTGNPYFTTDTTAILRAVEIDADMVIKATKVNGVYDKDPKQFDDAVFLNTLSYDEAMQDNIKVMDDTAIALAKDNKLPIVVCNMFEEGNLLKIIQGDTSLCSTVKNNEGHHHHHH,soluble

# From the DeepSol protein solubility set
